The values below come from patent US20260139046A1 (ATTOVIA THERAPEUTICS, published 2026).

In test [1] the target is T1, human IL31 (human, UniProt Q6EBC2 24-164, biotinylated in the SPR assay (site not stated)).
T1 sequence: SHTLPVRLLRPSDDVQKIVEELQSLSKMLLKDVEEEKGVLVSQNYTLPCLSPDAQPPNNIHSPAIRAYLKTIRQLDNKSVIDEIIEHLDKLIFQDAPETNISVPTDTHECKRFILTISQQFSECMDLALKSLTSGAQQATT
As to the kind of experiment: cell-based or functional assay.

Test [2] addresses T1, human IL31. The test is described as follows: binding kinetics after 3x freeze/thaw; method and target not restated (SPR on IL31 presumed).
Test [3] has as its target T1, human IL31. The test is described as follows: cell-based or functional assay. This is another data set of the same source.
Test [4] deals with T1, human IL31. As to the kind of experiment: cell-based or functional assay. The source holds these as a separate data set.
Test [5] has as its target T1, human IL31. As to the kind of experiment: KD of wild-type and humanized co-binders; method not restated (SPR as in Example 4 presumed).
Test [6] concerns the target T1, human IL31. The test is described as follows: SPR (Biacore T200, Biotin CAPture): biotinylated IL31 captured, co-binder Fc fusion as analyte. As to the method:
(§1) Binding affinity was measured using Biotin CAPture Kit (Cytiva Life Sciences) and the BIACORE™ T200 SPR system (Cytiva Life Sciences). Initially, Biotin CAPture Reagent (Cytiva Life Sciences) was flowed to immobilize 3 nM biotinylated IL31 (ligand). 3 nM, 9 nM, and 27 nM anti-IL31 co-binders were flowed as analyte with 180 seconds association and running buffer was flowed with 3000 seconds dissociation. The sensor chip was regenerated by guanidine hydrochloride and sodium hydroxide.
On the technique in general: SPR reads the build-up and loss of mass on a sensor chip optically.

Test [7] deals with T1, human IL31. As to the kind of experiment: binding kinetics, large-scale material, baseline sample; method and target not restated (SPR on IL31 presumed).
Test [8] concerns the target T1, human IL31. As to the kind of experiment: SPR (Biacore T200, Biotin CAPture): biotinylated IL31 captured, co-binder Fc fusion as analyte. As to the method:
as §1
The source holds these as a separate data set.

B1: 1D1 co-binder + huIgG1Fc_YTE_C→S (Fc fusion)
chain: EVQLVESGGGLVQAGGSLRLSCAASGGTFSSYAMAWFRQAPGKEREYVAGISSSGYTLYKSDSMKGRFTISRENAKNMVYLQMNSLKPEDTAVYSCAAGIFGRPYEYWGQGTLVTVSSGGGSGGGGSGGGGSGGGGSGGGGSPSMGVKLEESGGGLVQAGGSLILSCAASGDIPSIVAMGWYRQAPGKQRELVAAITSGGRTHYRDSVKGRFTISGNNDNSALYLHMNSLKPEDTAVYYCAADMGLTAVGEYDYWGQGTQVTVSSEPKSSDKTHTCPPCPAPELLGGPSVFLFPPKPKDTLYITREPEVTCVVVDVSHEDPEVKFNWYVDGVEVHNAKTKPREEQYNSTYRVVSVLTVLHQDWLNGKEYKCKVSNKALPAPIEKTISKAKGQPREPQVYTLPPSRDELTKNQVSLTCLVKGFYPSDIAVEWESNGQPENNYKTTPPVLDSDGSFFLYSKLTVDKSRWQQGNVFSCSVMHEALHNHYTQKSLSLSPGK
notes: VHH1-linker-VHH2-Fc; also called 1D1 WT; 1D1Fc
With B1, the “Activity (IC50, nM), pSTAT3 assay (P^3)” value with human IL31 [1] stood at 6.7 nM. For the same molecule, the Kd with human IL31 [2] stood at 3.22 nM; with human IL31 [5], 0.0153 nM; with human IL31 [6], 0.024 nM; in the test with human IL31 [7], 1.94 nM; with human IL31 [8], 0.024 nM. For the same molecule, the koff in the test with human IL31 [2] worked out at 0.000628 s⁻¹; with human IL31 [7] it was 0.000405 s⁻¹. Further, the kon with human IL31 [2] worked out at 195000 M⁻¹ s⁻¹; with human IL31 [7], 209000 M⁻¹ s⁻¹. For the same molecule, in the test with human IL31 [3], the “EC50 (pSTAT3) nM” value came out at 8.42 nM. Moreover, the “Activity (IC50, nM); pSTAT3 assay per Table 4” value (“Activity … per Table 4” below) with human IL31 [4] was 6.7 nM.

B2: 1C10 co-binder + huIgG1Fc_YTE_C→S (Fc fusion)
chain: EVQLVESGGGLVQAGGSLRLSCAASGGTFSSYTMGWFRQAPGKEREYVGGISSSGYVMYNSESMKGRFTISRENAKNMVYLQMNSLKPEDTAVYYCAAGTIGRPYDYWGQGTQVTVSSGGGSGGGGSGGGGSGGGGSGGGGSGGGGSGGGGSGMTGVKLEESGGGLVQPGGSLILSCAASGDISSIVAMGWYRQAPGKQRELVAAITSGGRTHYRDSVKGRFTISGNNDNSALYLHMNSLKPEDTAVYYCAADRGWTSVGEYDYWGKGTLVTVSSEPKSSDKTHTCPPCPAPELLGGPSVFLFPPKPKDTLYITREPEVTCVVVDVSHEDPEVKFNWYVDGVEVHNAKTKPREEQYNSTYRVVSVLTVLHQDWLNGKEYKCKVSNKALPAPIEKTISKAKGQPREPQVYTLPPSRDELTKNQVSLTCLVKGFYPSDIAVEWESNGQPENNYKTTPPVLDSDGSFFLYSKLTVDKSRWQQGNVFSCSVMHEALHNHYTQKSLSLSPGK
notes: VHH1-linker-VHH2-Fc; also called 1C10 WT; 1C10Fc
As for B2, the “Activity (IC50, nM), pSTAT3 assay (P^3)” value with human IL31 [1] is 8.5 nM. The equilibrium dissociation constant (Kd) in the test with human IL31 [2] was determined as 3.45 nM; with human IL31 [5], 0.0126 nM; in the test with human IL31 [6], 0.0587 nM; in the test with human IL31 [7] it was 1.5 nM; in the test with human IL31 [8], 0.0587 nM. The koff was 0.000675 s⁻¹ with human IL31 [2] and 0.00033 s⁻¹ with human IL31 [7]. In addition, the values for the kon in the test with human IL31 [2] and in the test with human IL31 [7] were 196000 M⁻¹ s⁻¹ and 220000 M⁻¹ s⁻¹, respectively. Moreover, in the test with human IL31 [3], the “EC50 (pSTAT3) nM” value was 6.57 nM. For the same molecule, in the test with human IL31 [4], the “Activity … per Table 4” value was determined as 8.5 nM.

B3: 1H5 co-binder + huIgG1Fc_YTE_C→S (Fc fusion)
chain: EVQLVESGGGSVQAGGSLRLSCAASGGTFSSYAMAWFRQAPGKEREYVAGISSSGYTLYKSDSMKGRFTISRENAKNMVYLQMNSLKPEDTAVYSCAAGIFGRPYEYWGQGTQVTVSSGGGGSGGGGSGGGGSRSVGVQLVESGGGLVQAGGSLRLSCAASGSISSIHAMGWYRQAPGKQRELIAAITSGGRRHYRDSVKGRFTISGDNAKTNLYLQMNSLKPEDTAVYYCAADTGRVAVGEYDYWGQGTLVTVSSEPKSSDKTHTCPPCPAPELLGGPSVFLFPPKPKDTLYITREPEVTCVVVDVSHEDPEVKFNWYVDGVEVHNAKTKPREEQYNSTYRVVSVLTVLHQDWLNGKEYKCKVSNKALPAPIEKTISKAKGQPREPQVYTLPPSRDELTKNQVSLTCLVKGFYPSDIAVEWESNGQPENNYKTTPPVLDSDGSFFLYSKLTVDKSRWQQGNVFSCSVMHEALHNHYTQKSLSLSPGK
notes: VHH1-linker-VHH2-Fc
As to B3, in the test with human IL31 [1], the “Activity (IC50, nM), pSTAT3 assay (P^3)” value was determined as 6.1 nM. Further, the Kd was found to be 0.619 nM with human IL31 [2], 0.0032 nM in the test with human IL31 [6], 0.136 nM with human IL31 [7] and 0.0032 nM in the test with human IL31 [8]. Further, the results for the koff with human IL31 [2] and with human IL31 [7] were 0.000551 s⁻¹ and 0.000138 s⁻¹, respectively. The kon in the test with human IL31 [2] was found to be 890000 M⁻¹ s⁻¹; in the test with human IL31 [7], 1.01e+06 M⁻¹ s⁻¹. Also, the “Activity … per Table 4” value in the test with human IL31 [4] was found to be 6.1 nM.

B4: 21H7 co-binder + huIgG1Fc_YTE_C→S (Fc fusion)
chain: EVQLVESGGGLVQAGGSLRLSCAASGGTFSSYTMGWFRQAPGKEREYVGGISSSGYVMYNSESMKGRFTISRENAKNMVYLQMNSLKPEDTAVYYCAAGTIGRPYDYWGQGTQVTVSSGGGSGGGGSGGGGSGGGGSGGGGSGGGGSGGGGSEGVGLVESGGGSVQAGDSLRLSCAASGRTFSTYIIGWFRQAPGKEREFVASISWGGRGTYYADSVKDRFTISRDNPKNMVYLQMNSLKPEDTAVYYCAAGDLPGGRRALDYDYWGQGTLVTVSSEPKSSDKTHTCPPCPAPELLGGPSVFLFPPKPKDTLYITREPEVTCVVVDVSHEDPEVKFNWYVDGVEVHNAKTKPREEQYNSTYRVVSVLTVLHQDWLNGKEYKCKVSNKALPAPIEKTISKAKGQPREPQVYTLPPSRDELTKNQVSLTCLVKGFYPSDIAVEWESNGQPENNYKTTPPVLDSDGSFFLYSKLTVDKSRWQQGNVFSCSVMHEALHNHYTQKSLSLSPGK
notes: VHH1-linker-VHH2-Fc; also called 21H7 WT; 21H7Fc
For B4, in the test with human IL31 [1], the “Activity (IC50, nM), pSTAT3 assay (P^3)” value is 8.4 nM. Moreover, the Kd with human IL31 [2] worked out at 19.4 nM; in the test with human IL31 [5] it was 0.0104 nM; with human IL31 [6], 0.0148 nM; in the test with human IL31 [7], 18.6 nM; with human IL31 [8], 0.0148 nM. Moreover, the koff with human IL31 [2] is 0.00435 s⁻¹; with human IL31 [7], 0.00423 s⁻¹. In addition, the on-rate constant (kon) with human IL31 [2] is 224000 M⁻¹ s⁻¹; with human IL31 [7], 228000 M⁻¹ s⁻¹. Moreover, in the test with human IL31 [3], the “EC50 (pSTAT3) nM” value came out at 6.65 nM. For the same molecule, the “Activity … per Table 4” value with human IL31 [4] amounted to 8.4 nM.

As a reminder, the Kd is the equilibrium constant for the complex coming apart. Read a low Kd as tighter binding. Broadly, the koff is the first-order rate constant of dissociation. As usually defined, the kon is the rate constant with which the complex forms. Lower therefore signals slow association.
